Experimental data as given in PMC12692541.

Test system: HalTzlAAA homotrinucleopeptide (synthetic (designed))
Assay: fluorescence anisotropy
Details: none

Question: For CCAGAGAGCCUGGGAGCUCUCUGG [ΔTAR], which Kd is on record?
Answer: Its Kd is 161 µM.

Question: With CCAGAUUUGAGCCUGGGAGCUCUCUGG [TAR UUU] as the sequence, how does the Kd read?
Answer: The Kd was 30.1 µM.
